The RNAGym collection of RNA variant scans (doi:10.1073/pnas.2313332121)
Variants at the floor of the assay were thinned out.

B1: TPR 5TU (parent)
chain: GGAUCUUCUCGAUCUAACAAAAAAGACAAAUCUGCCACAAAGCUUGAGAGCAUCUUCGGAUGCAGAGGCGGCAGCCUUCGGUGGCGCGAUAGCGCCAACGUUCUCAACUAUGACACGCAAAACGCGUGCUCCGUUGAAUGGAGUUUAUCAUG

Variants of: B1
Assay: polymerase ribozyme fitness, log enrichment relative to wild type (log ratio); higher = more active; in vitro selection for triplet polymerase activity
How it was run: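 Input and output libraries were sequenced on Illumina after a single in vitro selection round, run in triplicate on PCR-built, transcribed mutant libraries of each subunit of a heterodimeric triplet polymerase ribozyme. Selection annealed libraries to a biotinylated primer, the partner subunit and triplets, incubated them frozen at −7 °C, then gel-excised extended constructs for streptavidin-bead capture and RT-PCR. Genotypes with ≥10 input reads and ≥1 read per output were kept. Fitness is the logarithm, taken in base 2, of genotype enrichment divided by wild-type enrichment, using inverse-variance-weighted replicate averages.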

Going from GGAUCUUCUCGAUCUAACAAAAAGUACAAACCUGCCACAAAGCUUGAGAGCAUCAUCGGAUGCAGAGGCGGCAGCCUUCGGUGGCGGGAUAGCGCCAACGUGCUCAACUAUGACACGCAAAACGCGUGCUCCGUUGAAUGGAGUUUAUCAUG to GGAUCUUCUCGAUCUAACAAAAAGGACAAAUCUGCCACAAAGCUUGAGAGCAUCUUUGGAUGCAGAGGCGGCAGCCUUCGGUGGCGCGAUAGCGCCAACGUUCUCAACUAUGACACGCAAAACGCGUGCUCCGUUGAAUGGAGUUUAUCAUG, the “polymerase ribozyme fitness (log ratio)” value rises from ≤ -4.2 to -3.7.

GGAUCUUCUCGAUCUAACAAAAAGGACAAAUCUGCCACAAAGCUUGAGAGCAUAUUCGGAUGCAGAGGCGGCAGCCUUCGGUGGCGCGAUAGCGCCAACGUUCUCGACUAUGACACGCAAAACGCGUGCUCCGUUGAAUGGAGUUUAUCAUG and GGAUCUUCUCGAUCUAACAAAAAGGACAAAUCUGCCACACAGCUUGAGAGCAUCGUCGGAUGCAGAGGCGGCAGCCUUCGGUGGCGCGAUAGCGCCUACGUUCUCAACUAUGACACGCAAAACGCGUGCUCCGUUGAAUGGAGUUUAUCAUG cannot be ordered by “polymerase ribozyme fitness (log ratio)” value: ≤ -4.2 for the first, ≤ -4.2 for the second.

First: GGAUCUUCUCGAUCUAACAAAAAGGACAAAUCUGCCACAAAGCUUGAGAGCAUCUUCGGAUGCAGAGGCGGCAGCCUUCGGUGGCGCGAUAGCCCCAACGUUCUCAACUAUGACACGCAAAACGCGUGCUCCGUUGAAUGGAGUUUAUCAUG
Second: GGAUCUUCUCGAUCUAACAAAAAGGACAAAUCUGCCACAAAGCUUGAGAGCAUCUUCGGAUUCAGAGGCGGCAGCCUUCGGUGGCGCGAUAGCACCAACGUUCUCAACUAUGACAGGCAUAACGCGAGCUCCGUCGAAUGGAGUUUAUCAUG
The “polymerase ribozyme fitness (log ratio)” value of the first is higher: -3.21 for the first, ≤ -4.2 for the second.

First: GGAUCUUCUCGAUCUAACAAAAAGGACAAAUCUGCCACAAAGCUUGAGAGCAUCUUCGGAUGCAGAGGCGGCGGCCUUCGGUGGCACGAUAGCGCCAACGUUCUCAACUAUGACACGCAAAACGCGUGCUCCGUUGAAUGUAGUAUAUCUUG
Second: GGAUCUUCUCGAUCUAACAAAAAGGACAAAUCUGCCACAAAGCUUGAGAGCAUCUUCGGAUGCAGAGGCGGCAGCCUUCGGUGGCGCGAUAGCGCCAAUGUUCUCAACUAUGACACGCAAAACGCGUGCUCCGUUGAAUGGAGUUUAUCAUG
The “polymerase ribozyme fitness (log ratio)” value of the first is lower: ≤ -4.2 for the first, -3.56 for the second.

First: GGAUCUUCUCGAUCUAACAAAAAGGACAAAUCUGCCACAAAGCUUGAGAGCAUCUUCGGAUGCAGAGGCGGCAGCCUUCGGUGGCUCGAUAGCGCCAACGUUCUCAACUAUGACACGCAAAACGCGUGCUCCGUUGAAUGGAGUUUAUCAUG
Second: GGAUCUUCUCGAUCUAACAAAAAGGACAAAUCUGCCACAAAUCUUGAGAGCAUCUUCGGAUGCAGAGGCGGAAGCCUUCGGUGGCGCGAUUACGCCAACGUGCUCAACUAUGACACGCAAAACGCGUGCUCCGUUUAAUGGAGUUUAUCAUG
The “polymerase ribozyme fitness (log ratio)” value of the first is higher: -3.77 for the first, ≤ -4.2 for the second.

First: GGAUCUUCUCGAUCUAACAAAAAGGACAAAUCUGCCACAAAGCUUGAGAGCAUCUUCGGAUGCAGAGGCGGCAGCCUUCGGUGGCGCGAUAGUGCCAACGUUCUCAACUAUGACACGCAAAACGCGUGCUCCGUUGAAUGGAGUUUAUCAUG
Second: GGAUCUUCUCGAUCUAACAAAAAGGACAAAUCUGCCACAAAGCUUGAGAGCAUCUUCGGAUGCAGAGGCGGCAGCCUUCGGUGGCGCGAUAGCGCCAACGUUCUCAACUAUGACAGGCAAAACGCGUGCUCCGUUGAAUGGAGUUUAUCAUG
The “polymerase ribozyme fitness (log ratio)” value of the first is lower: -3.49 for the first, -2.85 for the second.

GGAUCUUCUCGAUCUAACAAAAAGGACAAAUCUGCCACAAAGCUUGAGAGCAUCUUCGGAUGCAGAGGCGGCAGCCUUCGGUGGCGCGAUAGCGCCAACGUUCUCAACUAUGACACGCAAAAUGCGUGCUCUGAUGAAUGGAGUUUAUCAUG and GGAUCUUCUCGAUCUAACAAAAAGGACAAAUCUGCCACAAAGCUUGAGAGCAUUUUCGGAUGCAGAAGCGGCAGCCUUCGGUGGCGCGAUAGCGCCAACGUUCUCAACUAUGACACGCAAAACGCGUGCUCCGUUGAAUGAAGUUUAUCCUG cannot be ordered by “polymerase ribozyme fitness (log ratio)” value: ≤ -4.2 for the first, ≤ -4.2 for the second.

GGAUCUUCUCGAUCUAACAAAAAGGACAAAUCUGCCACAAAGCUUGAGAGCAUUUUCGGAUGCAGAGGCGGCAGCCUUCGGUGGCGCGAUAGCGUCCACGUUCUCAACUAUGACACGCUAAACGUGUGCUCCGUUGAAUGGAGUUUAUCAUG and GGAUCUUCUCGAUCUAACAAAAAGGACAAAUCUGCCACAAAGCUUGAGAGCAUCUUCGGAUGCAGAGGCGGCAACCUUCGGUGGCGCGAUAGGGCCAACGUUCUCAACUAUGACACGCAAAACGCGUGCUCCGUUGAAUCGAGUUUAUCAGG cannot be ordered by “polymerase ribozyme fitness (log ratio)” value: ≤ -4.2 for the first, ≤ -4.2 for the second.

Compared with GGAUCUUCUCGAUCUAACAAAAAGGACAAAUCUGCCACAAAGCUUGAGAGCAUCUUCGGAUGCAGAGGCGGCAGCCUUCGGUGGCGCGAUAGCGCCAACGUUCUCAACUAUGACACGCAAAACGGGUGCUCCGUUGAAUGGAGUUUAUCAUG, GGAUCUUCUCGAUCUAACAAAAAGGACAAAUCUGCCACAAAGCUUGAGAGCAUCUUCGGAUGCAGAGGCGGCAGCCUUCGGUGGAGCGAUAGCGCCAACGUUCUCAACUAUGACACGCAAAACGCGUGCUCCGUUGAAUGGAGUUCAUCAUG is lower in “polymerase ribozyme fitness (log ratio)” value: -3.52 for the first, ≤ -4.2 for the second.

GGAUCUUCUCGAUCUAACAAAAAGCACAAAUCUGCCACAAAGCUUGAGUGCAUCUUCGGAUGCAGAGGCGGCAGCCUUCGGUGACGCGAUAGCGCCAACGUGCUCAACUAUGACACGCAAAACGCGUGCUCCGUUGAAUGGAGUUUAUCAUG and GGAUCUUCUCGAUCUAACAAAAAGGACAAAUCUGCCACAAAGCUUGAGAGCAUCUUCGGAUGCAGAGGCGGCAGCCUUCGGUGGGGCGAUAGCGCCAACGUUCUCAACUAUGACACGCAAAACGCGUGCUCCGUUGAAUGGAGUUUAUCAUG cannot be ordered by “polymerase ribozyme fitness (log ratio)” value: ≤ -4.2 for the first, ≤ -4.2 for the second.

First: GGAUCUUCUCGAUCUAACAAAAAGGACAAAUCUGCCACAAAGCUUGAGAGCAUCUUCGGAUGCAGAGGCGGCAGCCUUCGGUGGAGCGAUAGCGCCAACGUUCUCAACUAUGACACGCAAAACGCGUGCUCCGUUGAAUGGAGUUUAUCAUG
Second: GGAUCUUCUCGAUCUAACAAAAAGGACAAAUCUACCACAAAGCUUGAGAGCAUCUUCCGAUGCAGAGGCGGCAGCCUUCGGUGGCGAGAUAGCGCCAAUGUUCUCAACUAUGACACGCAAAACGCGUGCUCCGUUGAAUGGAGUUUAUCAUG
The “polymerase ribozyme fitness (log ratio)” value of the first is higher: -2.96 for the first, ≤ -4.2 for the second.

GGAUCUUCUCGAUCUAACAAAAAGGACAAAUCUGCCACAAAGCUUGAGAGCAUCUUCGGAUGCAGAGGCGGCAGACUUCGGUGGCGCGAUAGCGCCAACGUUCUCAACUAUGUCACGCAAAACGCGUGCUCCGUUGAAUGGAGUUUAUCAUG and GGAUCUUCUCGAUCUAACAAAAAGGACAAAUCUGCCACAAAGCUUGAGAGCAUCUUCGGAUGCAGAGGCGGCAGCCUUCGGUGGCGCGAUAGCGCCUACGUUCUCAACUAUGACACGCAAAACGCGUGCUCCGUUGAAUUGAGUUUAUCAUG cannot be ordered by “polymerase ribozyme fitness (log ratio)” value: ≤ -4.2 for the first, ≤ -4.2 for the second.

Going from GGAUCUUCUCGAUCUAACAAAAAGGACAAAUCUGCCACAAAGCUUGAGAGCAUCUUCGCAUGCAGAGGCGGCAGCCUUCGGUGGCGCGAUAGCGCCAACGUUCUCAACUAUGACACGCAAAACGCGUGCUCCGUUGAAUGGAGUUUAUCAUG to GGAUCUUCUCGAUCUAACAAAAAGGACAAAUCUGCCACAAAGCUUGAGAGCAUCUUCGGAUGCAGAGGCGGCAGCCUUCCGUCGCGCGAUAGCGCCAACGUUCUCAACUAUGACUCGCAAAACGCGUGCUCCGAUGAAUGGAGUUUAUCAUG, the “polymerase ribozyme fitness (log ratio)” value falls from -3.7 to ≤ -4.2.

GGAUCUUCUCGAUCUAACAAAAAGGACAAAUCUGCCACAAAGCUUGAGAGCGUCAUCGGAUGCAGAGGCGGCAGCCUUCGGUGGUGCGAUAGCGCCAACGUUCUCAACUAUGACACGCAAAACGCGUGCUCCGUUGAAUGGAGUUUAUCCUG and GGAUCUUCUCGAUCUAACAAAAAGGACAAAUCUGCCACAAAGCUUGAGAGCAUCUUCGGAUGCAGGGGCGGCAGCCUUCGGUGGAGCGAUUGCGCCAACGUUCUCAACUAUGACACGCAAAACGCGCGCUCCAAUGAAUGGAGUUUAUCAUG cannot be ordered by “polymerase ribozyme fitness (log ratio)” value: ≤ -4.2 for the first, ≤ -4.2 for the second.

Compared with GGAUCUUCUCGAUCUAACAAAAAGGACAAAUCUGUCACAAAGCUUGAUAGCUUCUUCGGAUGCAGAGGCGGCAGCCUUCGGUGGCGCGAUAGCGCCAACGUUCUCAACUAUGACACGCAAAACGAGUGCUCCGUUGAAUGGAGUUUAUCAUG, GGAUCUUCUCGAUCUAACAAAAAGGACAAAUCUGCCACAAAGCUUGAGAGCAUAUUCGGAUGCAGAGGCGGCAGCCUUCGGUGGCGCGAUAGCGCCAACGUUCUCAACUAUGACACGCAAAACGCGUGCUCCGUUGAAUGGAGUUUAUCAUG is higher in “polymerase ribozyme fitness (log ratio)” value: ≤ -4.2 for the first, -3.54 for the second.

GGAUCUUCUCGAUCUAACAAAAAGGACAAAUCUGCCACAAAGCUUGAGAGCAUCUUCGGAUGCAGAGGAGGCAGCCUUCGGUGGCGCGAUUGCGCCAACGUUCUCAACUAUGACACGCAAAACGCGUGCUCCGUUGAUUGGAUUUUAUCAUG and GGAUCUUCUCGAUCUAACAAAAAGGACAAAUCUGACACAAAGCUUGAGAGCAUCUUCAGAUGCAGAGGCGGCAGCCUUCGGUGGCGCGAUAGGGCCAAAGUUCUCAACUAUGACACGCAAAACGCGUGCUCCGUUGAAUGGAGUUUAUCAUG cannot be ordered by “polymerase ribozyme fitness (log ratio)” value: ≤ -4.2 for the first, ≤ -4.2 for the second.

GGAUCUUCUCGAUCUAACAAAAAGGACAAAUCUGCCACAAAGCUUGAGAGCAUCUUCGGAUGCAGAGGCGGCAGCCUUCGGUGGCGAGAUAGCGCCAACGUUCUCAACUAUGACACGCAAAACGCGUGCUCCGUUGAAUGGAGUUUAUCAUG and GGAUCUUCUCGAUCUAACAAAAAGGACAAAUCUGCCACGAAGCUUGAGAGCAUCUUCGGAUGCAGAUGCGGCAGCCUUCGGUAGAGCGAUAGCGCCAACGUUCGUAACUAUGACACGCAAAACGCGUGCUCCGUUAAAUGGAGUUUAUCAUG cannot be ordered by “polymerase ribozyme fitness (log ratio)” value: ≤ -4.2 for the first, ≤ -4.2 for the second.

GGAUCUUCUCGAUCUAACAAAAAGGACAAAUCUGCCACAAAGCUUGAGGGCAUCUUCGGAUGCAGAGGCGGCAGCCUUCGGUGGCGCGAUAGCGCCAACGUUCUUAACUAUGACACUCAAAACGCGUGCUCCGUUGAAUGGAGUUUAUCAUG and GGAUCUUCUCGAUCUAACAAAAAGGACAAAUAGGCCACAAAGCUUGAGAGCAUCUUCGGAUGCAAAGGCGGCAGCCUUCAGUGGCGCGAUAGCGCCAUCGUUCUCAACUAUGACACGCAAAACGCCUGCUCCGUUGAAUGGAGUGUCUCAUG cannot be ordered by “polymerase ribozyme fitness (log ratio)” value: ≤ -4.2 for the first, ≤ -4.2 for the second.

GGAUCUUCUCGAUCUAACAAAAAGGACAAAUCUGCCACAAAGCUUGAGAGCAUCUUCGGAUGCAGAGGCGGCAGCCUUCGGUGGCGCGAUAGCGCGAACGUUCUCAACUAUGACACGCAAAACGCGUGCUCCGUUGUAUGGAGUUUAUCAUG and GGAUCUUCUCGAUCUAACAAAAAGGACAAAUCUGCCACAAAGCUUGAGAGCCUCUUCGGAUGCAGAGGCGGCAGCCUUCGGUGGUGCGAUAGCGCUAACGUUCUUAACUAUGACACGCAUAACGCGUGCUCCGUUAAAUGGAGUUUAUCAUG cannot be ordered by “polymerase ribozyme fitness (log ratio)” value: ≤ -4.2 for the first, ≤ -4.2 for the second.
